Consider two substances from patent publication US20020161201A1.

pKd: −log10 of the molar value.

This assay concerns the target bovine submaxillary mucin type I (bovine). Nature of the assay: competition ELISA with biotinylated CC49 SCA, mucin. For orientation: ELISA stands for enzyme-linked immunosorbent assay.

One may read the pKd as the negative decadic logarithm of the Kd, by convention in mol/L. For “non-PEGylated CC49 SCA (Native-CC49) (scFv)”, the negative-log Kd (pKd) was 8.44.
With biotinylated CC49 SCA (scFv) the figure was 8.21.
